B1: TMEM120A (parent)
chain: YQSFVQFLQYYYQSGCLYRLRALG
B2: DLC1 (parent)
chain: HVTHWMGQPFNSDDRNTACHHGLV

Variants of: B1
Assay: protein stability index of a GFP-peptide fusion (GPS, HEK-293T) (PSI 1-6); higher = more stable
Conditions: c terminus: a fixed tail appended
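Also: lentivirally expressed fusions sorted by FACS into six bins by GFP to DsRed ratio, PSI derived from sequencing read proportions per bin multiplied by bin number.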

Protein stability index, by site and new letter:
Y18: P 2.45 | R 1.85 | K 1.86 | T 1.9 | N 1.79 | A 1.84 | E 2.07 | L 4.02 | I 2.96
Y11: F 3.33 | W 1.74 | S 3.12 | M 3.5 | A 1.28 | C 2.45 | R 3.03 | L 1.34
Y12: G 2.04 | I 2.34 | K 1.86 | R 2.3 | L 1.19 | C 4.09 | A 3.04 | M 3.19 | H 2.51 | F 2.15 | T 2.73
Y1: Q 2.83 | M 2.68 | S 1.86
Q9: N 2.7 | C 2.9 | P 1.25 | W 2.71 | F 2.13 | M 1.77 | L 2.74 | A 2.91
G24: R 2.65 | N 1.07 | A 1.65 | M 2.92 | C 1.89 | P 2.47 | K 3.01 | T 2.27 | L 2.97 | W 2.13 | F 2.43 | Y 2.12 | Q 3.31
V5: C 2.31 | R 3.82 | H 2.39 | K 2.62 | I 3.51 | M 2.91 | Q 1.89 | F 2.25 | N 4.88
G15: L 3.31 | S 2.95 | I 2.66 | W 1.9
Q2: A 2.37 | F 3.7 | I 2.65 | S 2.29 | W 1.21 | R 1.21 | E 3.02 | L 3.88 | M 3.47 | Y 1.83
R19: Y 2.66 | H 3.88 | E 2.1 | T 1.74 | L 1.22 | S 3.54 | W 3.14 | G 1.88 | V 1.95 | K 3.35 | I 1.84 | A 2.88 | M 1.97 | C 2.93 | P 2.84
L23: S 2.6 | F 1.77 | P 2.6 | C 3.82 | G 3.3 | Y 2.61
F7: D 1.8 | I 2.33 | W 3.54 | S 1.04 | N 3.1 | Y 5.14 | T 2.28 | L 3.51 | H 1.62
R21: N 3.14 | K 2.17 | F 1.58 | D 2.28 | Y 2.7 | Q 2.76
S3: V 3.32 | A 1.05 | L 3.8 | R 2.35 | N 2.12 | T 2.88 | Y 4.62 | H 2.33 | P 3.24 | D 3.12 | M 3.7
Q13: T 1.8 | C 3.12 | W 4.1 | N 2.81 | H 2.75 | G 2.27 | L 2.38 | F 2.43 | Y 1.97 | M 4.22 | S 3.55
L8: N 2.08 | S 1.28 | Q 2.13 | D 1.91 | W 1.62 | E 1.66 | C 2.17 | Y 2.79 | A 3.44 | T 1.88 | G 3.09 | H 1.73
L20: W 2.31 | R 1.47 | D 2.38 | Q 4.03 | M 2.47 | V 3.1 | A 1.85 | E 2.34 | K 3.64
L17: C 3.92 | M 2.14 | R 4.75 | T 1.6 | D 3.82 | W 3.23 | F 2.63
Q6: V 2.92 | L 3.11 | E 1.84 | D 3.22 | G 3.6 | R 2.24 | W 3.03 | N 2.48 | F 1.8
S14: V 3.65 | H 2.92 | E 2.56 | R 1.84 | G 3.08 | T 3.4 | Q 2.52 | I 3.42 | N 4.03 | M 2.02
A22: Y 2.13 | T 3.45 | K 1.96 | H 4.48 | L 3.17 | F 1.59 | S 2.32 | I 3.44
C16: Q 2.49 | T 2.12 | K 1.72 | N 1.04 | R 2.24
Y10: H 2.17 | C 2.56 | S 2.58 | G 3.01 | A 1.83 | E 1.79 | Q 2.35 | I 4.51
F4: C 3.14 | D 1.31 | W 2.8 | P 2.47 | T 3.43 | R 1.62 | V 4.44 | M 2.91 | S 1.59 | L 3.35 | I 3.47 | A 3.21 | Y 2.38

Variants of: B2
Assay: as above
Conditions: c terminus: a fixed tail appended

Protein stability index, by site and new letter:
W5: I 3.02 | R 3.56 | E 4.26 | V 3.55 | L 2.53 | D 4.27 | A 3.26 | P 3.3 | K 3.12 | N 3.86 | Q 3.47 | T 3.43 | Y 3.01 | M 3.04 | C 3.33 | S 4 | F 2.72 | H 3.8 | G 3.89
M6: D 3.03 | Y 2.23 | G 2.16 | W 2.15 | C 2.86 | T 2.12 | N 2.92 | F 2.02 | K 3.28 | A 2.75 | P 2.44 | H 2.34 | E 3.24 | Q 2.74 | L 1.93 | R 2.63 | I 2.12 | S 2.4 | V 2.48
V2: E 3.78 | M 2.71 | K 2.65 | G 3.3 | P 3.15 | W 1.98 | T 2.71 | F 2.71 | N 3.11 | H 2.35 | L 2.74 | D 3.76 | R 3.05 | Q 2.87 | I 2.22 | A 2.8 | C 2.48 | Y 2.42 | S 2.62
G7: C 2.02 | A 2.35 | D 2.46 | F 2.45 | H 1.97 | E 2.63
H1: W 1.78 | V 2.51 | E 2.78 | D 2.68 | Y 3.14 | P 3.08 | C 2.04 | M 2.5 | A 2.68 | G 3.08 | K 2.46 | T 2.91 | N 2.76 | R 2.31 | I 1.83 | L 2.14 | F 1.89 | Q 2.68 | S 2.61
T3: E 2.38 | L 1.59 | D 1.66 | Q 1.93 | F 1.69 | H 1.93 | N 1.99 | P 3.11 | K 1.91 | I 2.01 | A 2.5 | V 2.78 | G 1.19 | M 2.05 | S 1.64 | C 1.8 | Y 1.91 | R 1.95 | W 1.4
H4: Y 1.44 | L 1.7 | S 2.64 | E 2.63 | R 1.97 | G 1.5 | K 2.18 | W 1.6 | Q 1.78 | M 2.72 | P 2.17 | V 2.08 | I 1.89 | F 1.72 | D 2.49 | T 2.38 | N 2.11 | A 1.47 | C 2.49

Reference: the supplement of paper PMC10567573
